According to patent US20220040297A1 (Chugai, published 2022):

Each binder was assayed against T1, CD3ε homodimer protein (human, UniProt P07766 23-126, limits assumed) (assay: SPR (Biacore T200, 25°C); CD3ε homodimer immobilized on CM4, one-arm antibody as analyte).
T1 construct: also called human CD3ε homodimer protein; CD3e homodimer
T1 sequence (P07766 23-126 limits assumed): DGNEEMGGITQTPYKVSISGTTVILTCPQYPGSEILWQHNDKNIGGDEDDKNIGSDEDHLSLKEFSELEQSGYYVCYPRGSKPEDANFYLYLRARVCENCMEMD

| Binder | Kd [nM] |
| --- | --- |
| NNS6f59 (antibody, one-arm antibody) heavy: QVQLVESGGGLVQPGRSLRLSCAASGFTFSNAWMHWVRQAPGKGLEWVAQIKDKSNNYATYYAESVKGRFTISRDDSKNSIYLQMNSLKTEDTAVYYCRYVHYAALLVQEGYYGVDAWGQGTTVTVSSASTKGPSVFPLAPSSKSTSGGTAALGCLVKDYFPEPVTVSWNSGALTSGVHTFPAVLQSSGLYSLSSVVTVPSSSLGTQTYICNVNHKPSNTKVDKKVEPKSCDKTHTCPPCPAPEAAGGPSVFLFPPKPKDTLMISRTPEVTCVVVDVSHEDPEVKFNWYVDGVEVHNAKTKPREEQYASTYRVVSVLTVLHQDWLNGKEYKCKVSNKALPAPIEKTISKAKGQPREPQVYTLPPSRCELTKNQVSLSCAVKGFYPSDIAVEWESNGQPENNYKTTPPVLDSDGSFFLVSKLTVDKSRWQQGNVFSCSVMHEALHNHYTQKSLSLSPDYKDDDDK EPKSSDKTHTCPPCPAPELLGGPSVFLFPPKPKDTLMISRTPEVTCVVVDVSHEDPEVKFNWYVDGVEVHNAKTKPREEQYNSTYRVVSVLTVLHQDWLNGKEYKCKVSNKALPAPIEKTISKAKGQPREPQVCTLPPSRDELTKNQVSLWCLVKGFYPSDIAVEWESNGQPENNYKTTPPVLDSDGSFFLYSKLTVDKSRWQQGNVFSCSVMHEALHNRYTQKSLSLSP light: DIVMTQSPLSLPVTPGEPASISCRSSQSLVHSNRNTYLHWYQQKPGQAPRLLIYKVSNRFSGVPDRFSGSGSGTDFTLKISRVEAEDVGVYYCGQGTQVPYTFGQGTKLEIKRTVAAPSVFIFPPSDEQLKSGTASVVCLLNNFYPREAKVQWKVDNALQSGNSQESVTEQDSKDSTYSLSSTLTLSKADYEKHKVYACEVTHQGLSSPVTKSFNRGEC | 200 |
| NNS6f62 (antibody, one-arm antibody) heavy: QVQLVESGGGLVQPGRSLRLSCAASGFTFSNAWMHWVRQAPGKGLEWVAQIKDKSNNYATYYAESVKGRFTISRDDSKNSIYLQMNSLKTEDTAVYYCRYVHYAANGGTRHYYGVDAWGQGTTVTVSSASTKGPSVFPLAPSSKSTSGGTAALGCLVKDYFPEPVTVSWNSGALTSGVHTFPAVLQSSGLYSLSSVVTVPSSSLGTQTYICNVNHKPSNTKVDKKVEPKSCDKTHTCPPCPAPEAAGGPSVFLFPPKPKDTLMISRTPEVTCVVVDVSHEDPEVKFNWYVDGVEVHNAKTKPREEQYASTYRVVSVLTVLHQDWLNGKEYKCKVSNKALPAPIEKTISKAKGQPREPQVYTLPPSRCELTKNQVSLSCAVKGFYPSDIAVEWESNGQPENNYKTTPPVLDSDGSFFLVSKLTVDKSRWQQGNVFSCSVMHEALHNHYTQKSLSLSPDYKDDDDK EPKSSDKTHTCPPCPAPELLGGPSVFLFPPKPKDTLMISRTPEVTCVVVDVSHEDPEVKFNWYVDGVEVHNAKTKPREEQYNSTYRVVSVLTVLHQDWLNGKEYKCKVSNKALPAPIEKTISKAKGQPREPQVCTLPPSRDELTKNQVSLWCLVKGFYPSDIAVEWESNGQPENNYKTTPPVLDSDGSFFLYSKLTVDKSRWQQGNVFSCSVMHEALHNRYTQKSLSLSP light: DIVMTQSPLSLPVTPGEPASISCRSSQSLVHSNRNTYLHWYQQKPGQAPRLLIYKVSNRFSGVPDRFSGSGSGTDFTLKISRVEAEDVGVYYCGQGTQVPYTFGQGTKLEIKRTVAAPSVFIFPPSDEQLKSGTASVVCLLNNFYPREAKVQWKVDNALQSGNSQESVTEQDSKDSTYSLSSTLTLSKADYEKHKVYACEVTHQGLSSPVTKSFNRGEC | 61 |
| NNS6f64 (antibody, one-arm antibody) heavy: QVQLVESGGGLVQPGRSLRLSCAASGFTFSNAWMHWVRQAPGKGLEWVAQIKDKSNNYATYYAESVKGRFTISRDDSKNSIYLQMNSLKTEDTAVYYCRYVHYAALVSLTVYYGVDAWGQGTTVTVSSASTKGPSVFPLAPSSKSTSGGTAALGCLVKDYFPEPVTVSWNSGALTSGVHTFPAVLQSSGLYSLSSVVTVPSSSLGTQTYICNVNHKPSNTKVDKKVEPKSCDKTHTCPPCPAPEAAGGPSVFLFPPKPKDTLMISRTPEVTCVVVDVSHEDPEVKFNWYVDGVEVHNAKTKPREEQYASTYRVVSVLTVLHQDWLNGKEYKCKVSNKALPAPIEKTISKAKGQPREPQVYTLPPSRCELTKNQVSLSCAVKGFYPSDIAVEWESNGQPENNYKTTPPVLDSDGSFFLVSKLTVDKSRWQQGNVFSCSVMHEALHNHYTQKSLSLSPDYKDDDDK EPKSSDKTHTCPPCPAPELLGGPSVFLFPPKPKDTLMISRTPEVTCVVVDVSHEDPEVKFNWYVDGVEVHNAKTKPREEQYNSTYRVVSVLTVLHQDWLNGKEYKCKVSNKALPAPIEKTISKAKGQPREPQVCTLPPSRDELTKNQVSLWCLVKGFYPSDIAVEWESNGQPENNYKTTPPVLDSDGSFFLYSKLTVDKSRWQQGNVFSCSVMHEALHNRYTQKSLSLSP light: DIVMTQSPLSLPVTPGEPASISCRSSQSLVHSNRNTYLHWYQQKPGQAPRLLIYKVSNRFSGVPDRFSGSGSGTDFTLKISRVEAEDVGVYYCGQGTQVPYTFGQGTKLEIKRTVAAPSVFIFPPSDEQLKSGTASVVCLLNNFYPREAKVQWKVDNALQSGNSQESVTEQDSKDSTYSLSSTLTLSKADYEKHKVYACEVTHQGLSSPVTKSFNRGEC | 78 |

Results, then the binder that gave them:

| Kd [nM] | Binder |
| --- | --- |
| 36 | NNS6f67 (antibody, one-arm antibody) heavy: QVQLVESGGGLVQPGRSLRLSCAASGFTFSNAWMHWVRQAPGKGLEWVAQIKDKSNNYATYYAESVKGRFTISRDDSKNSIYLQMNSLKTEDTAVYYCRYVHYAAGLLRAAYYGVDAWGQGTTVTVSSASTKGPSVFPLAPSSKSTSGGTAALGCLVKDYFPEPVTVSWNSGALTSGVHTFPAVLQSSGLYSLSSVVTVPSSSLGTQTYICNVNHKPSNTKVDKKVEPKSCDKTHTCPPCPAPEAAGGPSVFLFPPKPKDTLMISRTPEVTCVVVDVSHEDPEVKFNWYVDGVEVHNAKTKPREEQYASTYRVVSVLTVLHQDWLNGKEYKCKVSNKALPAPIEKTISKAKGQPREPQVYTLPPSRCELTKNQVSLSCAVKGFYPSDIAVEWESNGQPENNYKTTPPVLDSDGSFFLVSKLTVDKSRWQQGNVFSCSVMHEALHNHYTQKSLSLSPDYKDDDDK EPKSSDKTHTCPPCPAPELLGGPSVFLFPPKPKDTLMISRTPEVTCVVVDVSHEDPEVKFNWYVDGVEVHNAKTKPREEQYNSTYRVVSVLTVLHQDWLNGKEYKCKVSNKALPAPIEKTISKAKGQPREPQVCTLPPSRDELTKNQVSLWCLVKGFYPSDIAVEWESNGQPENNYKTTPPVLDSDGSFFLYSKLTVDKSRWQQGNVFSCSVMHEALHNRYTQKSLSLSP light: DIVMTQSPLSLPVTPGEPASISCRSSQSLVHSNRNTYLHWYQQKPGQAPRLLIYKVSNRFSGVPDRFSGSGSGTDFTLKISRVEAEDVGVYYCGQGTQVPYTFGQGTKLEIKRTVAAPSVFIFPPSDEQLKSGTASVVCLLNNFYPREAKVQWKVDNALQSGNSQESVTEQDSKDSTYSLSSTLTLSKADYEKHKVYACEVTHQGLSSPVTKSFNRGEC |
| 45 | NNS6f68 (antibody, one-arm antibody) heavy: QVQLVESGGGLVQPGRSLRLSCAASGFTFSNAWMHWVRQAPGKGLEWVAQIKDKSNNYATYYAESVKGRFTISRDDSKNSIYLQMNSLKTEDTAVYYCRYVHYAAVEWGRWYYGVDAWGQGTTVTVSSASTKGPSVFPLAPSSKSTSGGTAALGCLVKDYFPEPVTVSWNSGALTSGVHTFPAVLQSSGLYSLSSVVTVPSSSLGTQTYICNVNHKPSNTKVDKKVEPKSCDKTHTCPPCPAPEAAGGPSVFLFPPKPKDTLMISRTPEVTCVVVDVSHEDPEVKFNWYVDGVEVHNAKTKPREEQYASTYRVVSVLTVLHQDWLNGKEYKCKVSNKALPAPIEKTISKAKGQPREPQVYTLPPSRCELTKNQVSLSCAVKGFYPSDIAVEWESNGQPENNYKTTPPVLDSDGSFFLVSKLTVDKSRWQQGNVFSCSVMHEALHNHYTQKSLSLSPDYKDDDDK EPKSSDKTHTCPPCPAPELLGGPSVFLFPPKPKDTLMISRTPEVTCVVVDVSHEDPEVKFNWYVDGVEVHNAKTKPREEQYNSTYRVVSVLTVLHQDWLNGKEYKCKVSNKALPAPIEKTISKAKGQPREPQVCTLPPSRDELTKNQVSLWCLVKGFYPSDIAVEWESNGQPENNYKTTPPVLDSDGSFFLYSKLTVDKSRWQQGNVFSCSVMHEALHNRYTQKSLSLSP light: DIVMTQSPLSLPVTPGEPASISCRSSQSLVHSNRNTYLHWYQQKPGQAPRLLIYKVSNRFSGVPDRFSGSGSGTDFTLKISRVEAEDVGVYYCGQGTQVPYTFGQGTKLEIKRTVAAPSVFIFPPSDEQLKSGTASVVCLLNNFYPREAKVQWKVDNALQSGNSQESVTEQDSKDSTYSLSSTLTLSKADYEKHKVYACEVTHQGLSSPVTKSFNRGEC |
| 51 | NNS6f71 (antibody, one-arm antibody) heavy: QVQLVESGGGLVQPGRSLRLSCAASGFTFSNAWMHWVRQAPGKGLEWVAQIKDKSNNYATYYAESVKGRFTISRDDSKNSIYLQMNSLKTEDTAVYYCRYVHYAAGWVLGSYYGVDAWGQGTTVTVSSASTKGPSVFPLAPSSKSTSGGTAALGCLVKDYFPEPVTVSWNSGALTSGVHTFPAVLQSSGLYSLSSVVTVPSSSLGTQTYICNVNHKPSNTKVDKKVEPKSCDKTHTCPPCPAPEAAGGPSVFLFPPKPKDTLMISRTPEVTCVVVDVSHEDPEVKFNWYVDGVEVHNAKTKPREEQYASTYRVVSVLTVLHQDWLNGKEYKCKVSNKALPAPIEKTISKAKGQPREPQVYTLPPSRCELTKNQVSLSCAVKGFYPSDIAVEWESNGQPENNYKTTPPVLDSDGSFFLVSKLTVDKSRWQQGNVFSCSVMHEALHNHYTQKSLSLSPDYKDDDDK EPKSSDKTHTCPPCPAPELLGGPSVFLFPPKPKDTLMISRTPEVTCVVVDVSHEDPEVKFNWYVDGVEVHNAKTKPREEQYNSTYRVVSVLTVLHQDWLNGKEYKCKVSNKALPAPIEKTISKAKGQPREPQVCTLPPSRDELTKNQVSLWCLVKGFYPSDIAVEWESNGQPENNYKTTPPVLDSDGSFFLYSKLTVDKSRWQQGNVFSCSVMHEALHNRYTQKSLSLSP light: DIVMTQSPLSLPVTPGEPASISCRSSQSLVHSNRNTYLHWYQQKPGQAPRLLIYKVSNRFSGVPDRFSGSGSGTDFTLKISRVEAEDVGVYYCGQGTQVPYTFGQGTKLEIKRTVAAPSVFIFPPSDEQLKSGTASVVCLLNNFYPREAKVQWKVDNALQSGNSQESVTEQDSKDSTYSLSSTLTLSKADYEKHKVYACEVTHQGLSSPVTKSFNRGEC |
